The target in assay [1] is T1, His-tagged recombinant human CD-19 (human, UniProt P15391 20-291, limits assumed).
T1 sequence (looked up): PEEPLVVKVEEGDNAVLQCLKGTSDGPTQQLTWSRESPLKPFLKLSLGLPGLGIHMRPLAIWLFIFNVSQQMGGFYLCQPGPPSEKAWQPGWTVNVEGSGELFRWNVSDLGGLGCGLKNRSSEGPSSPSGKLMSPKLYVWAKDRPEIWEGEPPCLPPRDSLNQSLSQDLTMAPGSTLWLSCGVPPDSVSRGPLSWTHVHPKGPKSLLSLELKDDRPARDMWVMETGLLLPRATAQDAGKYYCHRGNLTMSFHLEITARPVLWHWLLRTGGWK
The assay can be described thus: SPR.

The target in assay [2] is T2, Recombinant human IL-17A (human, UniProt Q16552 20-155, limits assumed). Briefly: SPR. On the technique in general: Surface plasmon resonance follows binding to a sensor surface in real time, without labels.
The target in assay [3] is T2, Recombinant human IL-17A. Briefly: SPR. The source holds these as a separate data set.
Assay [4] deals with T1, His-tagged recombinant human CD-19. Briefly: SPR. This is another data set of the same source.
In assay [5] the target is T3, His-tagged recombinant human CD-19 (human, UniProt P15391 20-291, limits assumed).
T3 sequence (looked up): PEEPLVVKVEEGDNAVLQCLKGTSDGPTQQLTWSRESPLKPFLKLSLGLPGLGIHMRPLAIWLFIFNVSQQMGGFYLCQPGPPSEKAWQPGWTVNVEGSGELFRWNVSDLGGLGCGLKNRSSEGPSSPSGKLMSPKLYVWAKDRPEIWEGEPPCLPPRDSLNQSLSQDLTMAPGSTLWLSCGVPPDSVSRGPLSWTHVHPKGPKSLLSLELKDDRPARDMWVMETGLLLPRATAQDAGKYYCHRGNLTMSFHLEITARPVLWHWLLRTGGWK
Briefly: SPR. This is another data set of the same source.

Assay [6] deals with T3, His-tagged recombinant human CD-19. The assay can be described thus: SPR. This is another data set of the same source.
Assay [7] addresses His-tagged Influenza B Hemagglutinin (B/Brisbane/60/2008) (Influenza B (B/Brisbane/60/2008)).
The target of assay [8] is Pertuzumab heavy chain Fab construct (H2) L45P (VH L45P). Briefly: LCCA, SPR tag read-out.
For assay [9], the target named is CAT-2200 heavy chain Fab construct (H1), wild type. Briefly: LCCA, SPR tag read-out.
Assay [10] deals with Pertuzumab heavy chain Fab construct (H2) L45A (VH L45A). Briefly: LCCA, SPR tag read-out.
The target in assay [11] is CAT-2200 heavy chain Fab construct (H1) L45F (VH L45F). Briefly: LCCA, SPR tag read-out.
Assay [12] concerns the target Pertuzumab heavy chain Fab construct (H2) Q39K (VH Q39K). The assay can be described thus: LCCA, SPR tag read-out.
The target of assay [13] is CAT-2200 heavy chain Fab construct (H1) Q39E (VH Q39E). The assay can be described thus: LCCA, SPR tag read-out.
Assay [14] deals with CAT-2200 heavy chain Fab construct (H1) Q39D (VH Q39D). Briefly: LCCA, SPR tag read-out.
The target of assay [15] is CAT-2200 heavy chain Fab construct (H1) Q39E (VH Q39E). Briefly: LCCA, SPR tag read-out. This is another data set of the same source.
In assay [16] the target is Pertuzumab heavy chain Fab construct (H2) Q39R (VH Q39R). The assay can be described thus: LCCA, SPR tag read-out.

Like-named read-outs stand apart in the source and are kept apart here.

T2 sequence (Q16552 20-155 limits assumed): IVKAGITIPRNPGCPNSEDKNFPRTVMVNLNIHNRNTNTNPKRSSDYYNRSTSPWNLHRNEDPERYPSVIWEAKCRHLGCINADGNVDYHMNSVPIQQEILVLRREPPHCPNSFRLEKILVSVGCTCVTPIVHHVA

B1: Design 3113 bispecific antibody, System B (CAT-2200 H1/L1 & SGN-CD19a H2/L2) (bispecific antibody)
chain 1: not shown
chain 2: NFMLTQPHSVSESPGKTVTISCTRSSGSLANYYVQWYQQRPGSSPTIVIFANNQRPSGVPDRFSGSIDSSSNSASLTISGLKTEDEADYYCQTYDPYSVVFGGGTKLTVLGQPKAAPSVTLFPPSSEELQANKATLDCLISDFYPGAVTVAWKADSSPVKAGVETTTPSKQSNNKYAASSTLSLTPEQWKSHRSYSCQVTHEGSTVEKTVAPTECS
chain 3: not shown
chain 4: EIVLTQSPATLSLSPGERATLSCSASSSVSYMHWYQQKPGQAPRLLIYDTSKLASGIPARFSGSGSGTDFTLTISSLEPEDFAVYYCFQGSVYPFTFGQGTKLEIKRTVAAPSVFIFPPSDEQLKSGTARVGCLLNNFYPREAKVQWKVDNALQSGNSQESVTEQDSKDSTYSLRSTLTLSKADYEKHKVYACEVTHQGLSSPVTKSFNRGEC
As a reminder, the Kd is the equilibrium constant for the complex coming apart. Regarding B1, the dissociation constant (Kd) in [1] was 216 nM; with Recombinant human IL-17A [3] it was 0.44 nM. Further, the “Difference in H1L1 log(KD) from wild type” value with Recombinant human IL-17A [2] was -0.2. Besides, the “Difference in H2L2 log(KD) from wild type” value (“Difference in H2L2 log(KD)” below) in assay [4] is 0.02.

B2: Design 3890 bispecific antibody, System C (CR8071 H1/L1 & SGN-CD19a H2/L2) (bispecific antibody)
chain 1: QVQLVQSGAEVKKPGASVRVSCRASGYIFTESGITWVRQAPGQGLEWMGWISGYSGDTKYAQKLQGRVTMTKDTSTTTAYMELRSLRYDDTAVYYCARDVQYSGSYLGAYYFDYWSPGTLVTVSSASTKGPSVFPLRPSSKSTSGGTAALGCLVKDYFPEPVTVSWNSGALTSGVHTFPAVLKSSGLYSLSSVVTVPSSSLGTQTYICNVNHKPSNTKVDKKVEPKSCDKTHTCPPCPAPELLGGPSVFLFPPKPKDTLMISRTPEVTCVVVDVSHEDPEVKFNWYVDGVEVHNAKTKPREEQYNSTYRVVSVLTVLHQDWLNGKEYKCKVSNKALPAPIEKTISKAKGQPREPQVYVYPPSRDELTKNQVSLTCLVKGFYPSDIAVEWESNGQPENNYKTTPPVLDSDGSFALVSKLTVDKSRWQQGNVFSCSVMHEALHNHYTQKSLSLSPG
chain 2: not shown
chain 3: not shown
chain 4: EIVLTQSPATLSLSPGERATLSCSASSSVSYMHWYQQKPGQAPRLLIYDTSKLASGIPARFSGSGSGTDFTLTISSLEPEDFAVYYCFQGSVYPFTFGQGTKLEIKRTVAAPSVFIFPPKDERLKSGTASVVCLLNNFYPREAKVQWKVDNALQSGNSQESVTEQDSKDSTYSLSSRLTLSKADYEKHKVYACEVTHQGLSSPVTKSFNRGEC
B2: the figures for the Kd in assay [5] and in assay [7] were 40.9 nM and 0.44 nM, respectively. For the same molecule, the “Difference in H2L2 log(KD)” value in assay [6] is 0.22 log(KD).

B3: Design 2901 bispecific antibody, System C (CR8071 H1/L1 & SGN-CD19a H2/L2) (bispecific antibody)
chain 1: QVQLVQSGAEVKKPGASVRVSCRASGYIFTESGITWVRQAPGQGLEWMGWISGYSGDTKYAQKLQGRVTMTKDTSTTTAYMELRSLRYDDTAVYYCARDVQYSGSYLGAYYFDYWSPGTLVTVSSASTKGPSVFPLAPSSKSTSGGTAALGCLVTDYFPEPVTVSWNSGALTSGVHTFPADLQSSGLYSLDSVVTVPSSSLGTQTYICNVNHKPSNTKVDKKVEPKSCDKTHTCPPCPAPELLGGPSVFLFPPKPKDTLMISRTPEVTCVVVDVSHEDPEVKFNWYVDGVEVHNAKTKPREEQYNSTYRVVSVLTVLHQDWLNGKEYKCKVSNKALPAPIEKTISKAKGQPREPQVYVYPPSRDELTKNQVSLTCLVKGFYPSDIAVEWESNGQPENNYKTTPPVLDSDGSFALVSKLTVDKSRWQQGNVFSCSVMHEALHNHYTQKSLSLSPG
chain 2: not shown
chain 3: not shown
chain 4: EIVLTQSPATLSLSPGERATLSCSASSSVSYMHWYQQKPGQAPRLLIYDTSKLASGIPARFSGSGSGTDFTLTISSLEPEDFAVYYCFQGSVYPFTFGQGTKLEIKRTVAAPSVFIFPPSDEQLKSGTASVGCLLNNFYPREAKVQWKVDNALQSGNSQESVTEQDSKDSTYSLDSTLTLSKADYEKHKVYACEVTHQGLSSPVTKSFNRGEC
On to B3, for which the results for the Kd in assay [5] and in assay [7] were 41.9 nM and 0.64 nM, respectively. Also, the “Difference in H2L2 log(KD)” value in [6] is 0.21 log(KD).

B4: Pertuzumab kappa light chain construct (L2) P44F, HA-tagged (other, not shown: small tags and cut ends)
light: DIQMTQSPSSLSASVGDRVTITCKASQDVSIGVAWYQQKPGKAFKLLIYSASYRYTGVPSRFSGSGSGTDFTLTISSLQPEDFATYYCQQYYIYPYTFGQGTKVEIKRTVAAPSVFIFPPSDEQLKSGTASVVCLLNNFYPREAKVQWKVDNALQSGNSQESVTEQDSKDSTYSLSSTLTLSKADYEKHKVYACEVTHQGLSSPVTKSFNRGEC
B4: the entries for the “H2L2:H2L1 normalized median ratio (H2L2 part)” value in assay [8] and in assay [10] were 67% and 59%, respectively. Besides, the “H2L2:H2L1 normalized median scalar value ln(r1/f1)” value was 0.72 in assay [8] and 0.37 in assay [10]. The “H1L1:H1L2 normalized median ratio (H1L2 part)” value was 38% in assay [9] and 35% in [11].

B5: Pertuzumab kappa light chain construct (L2) Q38E, HA-tagged (other, not shown: small tags and cut ends)
light: DIQMTQSPSSLSASVGDRVTITCKASQDVSIGVAWYQEKPGKAPKLLIYSASYRYTGVPSRFSGSGSGTDFTLTISSLQPEDFATYYCQQYYIYPYTFGQGTKVEIKRTVAAPSVFIFPPSDEQLKSGTASVVCLLNNFYPREAKVQWKVDNALQSGNSQESVTEQDSKDSTYSLSSTLTLSKADYEKHKVYACEVTHQGLSSPVTKSFNRGEC
Take B5: the “H2L2:H2L1 normalized median ratio (H2L2 part)” value in assay [12] and in assay [16] was 54% in each case. Besides, the entries for the “H1L1:H1L2 normalized median ratio (H1L2 part)” value in assay [13], in assay [14] and in [15] were 24%, 36% and 31%, respectively. Besides, the “H2L2:H2L1 normalized median scalar value ln(r1/f1)” value in [16] stood at 0.15.

B6: Pertuzumab kappa light chain construct (L2) Q38D, HA-tagged (other, not shown: small tags and cut ends)
light: DIQMTQSPSSLSASVGDRVTITCKASQDVSIGVAWYQDKPGKAPKLLIYSASYRYTGVPSRFSGSGSGTDFTLTISSLQPEDFATYYCQQYYIYPYTFGQGTKVEIKRTVAAPSVFIFPPSDEQLKSGTASVVCLLNNFYPREAKVQWKVDNALQSGNSQESVTEQDSKDSTYSLSSTLTLSKADYEKHKVYACEVTHQGLSSPVTKSFNRGEC
As for B6, the “H1L1:H1L2 normalized median ratio (H1L2 part)” value in assay [15] amounted to 31%. Besides, in assay [16], the “H2L2:H2L1 normalized median ratio (H2L2 part)” value was 56% and the “H2L2:H2L1 normalized median scalar value ln(r1/f1)” value worked out at 0.23.

Source of the values: US20190338048A1 (published 2019).
